# Experimental data taken from publication PMC2867956, “Interdomain Interactions Control Ca^2+-Dependent Potentiation in the Cation Channel TRPV4” (PLoS ONE, 2010).
# Tested on: CFP-fused N1
# Assay: FRET acceptor bleaching, N1/C1 interaction in HEK293 cells
# Format: cell-based, human
# Conditions: YFP-fused C1 and CFP-fused N1 coexpressed in HEK293 cells
# Source text: (See Methods S1 for details).
molecule,measurement,value
"C1: full-length TRPV4 C terminus, residues 721-871 (protein, UniProt Q9HBA0 721-871, looked up, fragment) TVGQVSKESKHIWKLQWATTILDIERSFPVFLRKAFRSGEMVTVGKSSDGTPDRRWCFRVDEVNWSHWNQNLGIINEDPGKNETYQYYGFSHTVGRLRRDRWSSVVPRVVELNKNSNPDEVVVPLDSMGNPRCDGHQQGYPRKWRTDDAPL",FRET interaction of N1 and C1,interact
